From patent publication US20220143024A1, “METHODS OF USING IMIPRIDONES” (Board of Regents, The University of Texas System, priority 2019, published 2022)

Experiments:
Experiment in all cases: BioID-MS +ONC201
[1] = molecular target: ACADM (human) (UniProt P11310)
[2] = molecular target: ACAT1 (human) (UniProt P24752)
[3] = molecular target: ACN9 (human) (UniProt Q9NRP4)
[4] = molecular target: ADCK3 (human) (UniProt Q8NI60)
[5] = molecular target: ALDH6A1 (human) (UniProt Q02252)
[6] = molecular target: C7orf55 (human) (UniProt Q96HJ9)
[7] = molecular target: CDK5RAP1 (human) (UniProt Q96SZ6)
[8] = molecular target: COQ8A (human) (UniProt Q8NI60)
[9] = molecular target: COX5B (human) (UniProt P10606)
[10] = molecular target: CPOX (human) (UniProt P36551)
[11] = molecular target: CRAT (human) (UniProt P43155)
[12] = molecular target: GFM1 (human) (UniProt Q96RP9)
[13] = molecular target: GPT2 (human) (UniProt Q8TD30)
[14] = molecular target: GRSF1 (human) (UniProt Q12849)
[15] = molecular target: GTPBP3 (human) (UniProt Q969Y2)
[16] = molecular target: HARS2 (human) (UniProt P49590)
[17] = molecular target: HSD17B8 (human) (UniProt Q92506)
[18] = molecular target: HSPA1L (human) (UniProt P34931)
[19] = molecular target: HSPE1 (human) (UniProt P61604)
[20] = molecular target: MDH2 (human) (UniProt P40926)
[21] = molecular target: MRPL46 (human) (UniProt Q9H2W6)
[22] = molecular target: MRPL54 (human) (UniProt Q6P161)
[23] = molecular target: MRPS15 (human) (UniProt P82914)
[24] = molecular target: MRPS24 (human) (UniProt Q96EL2)
[25] = molecular target: MRPS25 (human) (UniProt P82663)
[26] = molecular target: MRPS36 (human) (UniProt P82909)
[27] = molecular target: MRPS7 (human) (UniProt Q9Y2R9)
[28] = molecular target: MTRF1 (human) (UniProt O75570)
[29] = molecular target: NDUFA12 (human) (UniProt Q9UI09)
[30] = molecular target: NDUFA6 (human) (UniProt P56556)
[31] = molecular target: NDUFAF1 (human) (UniProt Q9Y375)
[32] = molecular target: NDUFAF5 (human) (UniProt Q5TEU4)
[33] = molecular target: NDUFS4 (human) (UniProt O43181)
[34] = molecular target: NFUl (human) (UniProt Q9UMS0)
[35] = molecular target: NIPSNAP1 (human) (UniProt Q9BPW8)
[36] = molecular target: NUBPL (human) (UniProt Q8TB37)
[37] = molecular target: NUDT19 (human) (UniProt A8MXV4)
[38] = molecular target: OXCT1 (human) (UniProt P55809)
[39] = molecular target: PDIA3 (human) (UniProt P30101)
[40] = molecular target: PDPR (human) (UniProt Q8NCN5)
[41] = molecular target: POLRMT (human) (UniProt O00411)
[42] = molecular target: PPA2 (human) (UniProt Q9H2U2)
[43] = molecular target: PPIF (human) (UniProt P30405)
[44] = molecular target: PRKCA (human) (UniProt P17252)
[45] = molecular target: PTPMT1 (human) (UniProt Q8WUK0)
[46] = molecular target: PYCR2 (human) (UniProt Q96C36)
[47] = molecular target: RG9MTD1 (human) (UniProt Q7L0Y3)
[48] = molecular target: SDHAF3 (human) (UniProt Q9NRP4)
[49] = molecular target: SHMT2 (human) (UniProt P34897)
[50] = molecular target: SLC27A2 (human) (UniProt O14975)
[51] = molecular target: SUCLG2 (human) (UniProt Q96I99)

HARS2 (human), sequence (P49590 34-506 limits assumed): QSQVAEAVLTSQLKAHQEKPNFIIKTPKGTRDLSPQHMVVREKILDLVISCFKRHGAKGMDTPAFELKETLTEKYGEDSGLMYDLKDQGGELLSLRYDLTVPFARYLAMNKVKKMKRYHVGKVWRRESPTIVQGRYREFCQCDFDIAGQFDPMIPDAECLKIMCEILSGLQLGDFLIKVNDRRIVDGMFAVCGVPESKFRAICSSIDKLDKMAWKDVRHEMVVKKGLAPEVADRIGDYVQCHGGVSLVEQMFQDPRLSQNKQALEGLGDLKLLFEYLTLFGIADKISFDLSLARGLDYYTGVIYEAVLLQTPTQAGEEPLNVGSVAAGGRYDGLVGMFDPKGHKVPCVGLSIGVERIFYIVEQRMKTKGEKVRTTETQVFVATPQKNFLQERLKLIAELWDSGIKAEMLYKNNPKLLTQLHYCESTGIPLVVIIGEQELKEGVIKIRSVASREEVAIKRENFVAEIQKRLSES
CPOX (human), sequence (P36551 111-454 limits assumed): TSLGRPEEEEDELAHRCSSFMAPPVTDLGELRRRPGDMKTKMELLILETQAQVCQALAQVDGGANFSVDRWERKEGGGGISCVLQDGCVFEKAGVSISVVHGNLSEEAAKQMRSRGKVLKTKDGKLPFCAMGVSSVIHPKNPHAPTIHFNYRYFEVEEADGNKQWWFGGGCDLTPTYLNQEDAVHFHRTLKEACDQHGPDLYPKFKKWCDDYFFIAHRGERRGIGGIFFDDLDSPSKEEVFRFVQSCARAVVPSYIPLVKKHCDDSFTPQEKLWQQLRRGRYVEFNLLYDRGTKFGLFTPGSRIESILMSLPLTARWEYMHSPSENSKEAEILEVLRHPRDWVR
HSD17B8 (human), sequence (Q92506 whole entry): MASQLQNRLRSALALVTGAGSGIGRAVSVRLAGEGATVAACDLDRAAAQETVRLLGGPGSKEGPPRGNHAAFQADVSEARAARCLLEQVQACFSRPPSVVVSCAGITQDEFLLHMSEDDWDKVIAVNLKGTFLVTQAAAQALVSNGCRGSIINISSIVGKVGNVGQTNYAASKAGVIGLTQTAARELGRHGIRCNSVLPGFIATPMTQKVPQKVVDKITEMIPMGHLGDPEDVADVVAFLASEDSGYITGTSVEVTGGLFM
CRAT (human), sequence (P43155 whole entry): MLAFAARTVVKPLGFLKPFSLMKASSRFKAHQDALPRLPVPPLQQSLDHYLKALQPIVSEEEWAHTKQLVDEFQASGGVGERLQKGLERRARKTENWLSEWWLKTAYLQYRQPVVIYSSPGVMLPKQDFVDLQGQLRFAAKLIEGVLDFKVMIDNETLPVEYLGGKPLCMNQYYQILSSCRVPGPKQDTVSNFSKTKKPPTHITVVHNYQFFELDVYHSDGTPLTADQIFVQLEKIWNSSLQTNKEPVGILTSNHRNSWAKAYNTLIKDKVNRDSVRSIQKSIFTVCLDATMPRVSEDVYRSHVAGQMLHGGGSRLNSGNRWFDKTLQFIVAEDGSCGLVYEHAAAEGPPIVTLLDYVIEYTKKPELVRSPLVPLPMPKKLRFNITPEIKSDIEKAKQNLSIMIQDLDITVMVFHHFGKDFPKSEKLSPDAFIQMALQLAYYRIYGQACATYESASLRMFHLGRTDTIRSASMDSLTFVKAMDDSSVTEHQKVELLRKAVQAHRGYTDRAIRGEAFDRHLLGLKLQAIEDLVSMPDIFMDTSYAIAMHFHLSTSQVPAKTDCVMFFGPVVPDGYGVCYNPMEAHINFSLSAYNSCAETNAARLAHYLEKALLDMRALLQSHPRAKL
GFM1 (human), sequence (Q96RP9 37-751 limits assumed): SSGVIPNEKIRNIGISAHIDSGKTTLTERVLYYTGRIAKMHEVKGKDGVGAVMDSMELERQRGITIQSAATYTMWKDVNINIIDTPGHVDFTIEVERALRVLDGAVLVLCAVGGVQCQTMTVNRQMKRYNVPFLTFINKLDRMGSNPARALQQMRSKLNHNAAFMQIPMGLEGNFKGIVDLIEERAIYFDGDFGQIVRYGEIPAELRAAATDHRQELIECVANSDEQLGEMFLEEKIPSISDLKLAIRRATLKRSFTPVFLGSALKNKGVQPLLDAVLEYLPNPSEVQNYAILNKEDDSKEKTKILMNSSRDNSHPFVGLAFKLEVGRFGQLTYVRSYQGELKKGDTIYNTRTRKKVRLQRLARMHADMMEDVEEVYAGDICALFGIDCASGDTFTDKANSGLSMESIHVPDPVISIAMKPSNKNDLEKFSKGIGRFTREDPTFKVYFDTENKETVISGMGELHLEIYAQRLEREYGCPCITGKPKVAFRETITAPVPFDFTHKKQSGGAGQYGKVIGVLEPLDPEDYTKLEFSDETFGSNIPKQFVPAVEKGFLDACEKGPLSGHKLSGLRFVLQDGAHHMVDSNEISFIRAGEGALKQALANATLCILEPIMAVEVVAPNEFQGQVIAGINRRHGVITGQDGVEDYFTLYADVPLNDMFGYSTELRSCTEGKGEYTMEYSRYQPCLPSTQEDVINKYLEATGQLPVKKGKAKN
PPIF (human), sequence (P30405 30-207 limits assumed): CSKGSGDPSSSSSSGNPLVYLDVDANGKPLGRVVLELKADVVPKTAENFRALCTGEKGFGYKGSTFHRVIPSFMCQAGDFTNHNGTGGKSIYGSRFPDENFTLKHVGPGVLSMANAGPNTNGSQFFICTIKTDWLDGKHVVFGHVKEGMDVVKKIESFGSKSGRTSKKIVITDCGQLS
NDUFS4 (human), sequence (O43181 43-175 limits assumed): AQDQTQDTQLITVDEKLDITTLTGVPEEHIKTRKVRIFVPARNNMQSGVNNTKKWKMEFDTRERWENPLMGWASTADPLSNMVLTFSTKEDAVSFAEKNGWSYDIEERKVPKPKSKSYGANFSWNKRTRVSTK
PDIA3 (human), sequence (P30101 25-505 limits assumed): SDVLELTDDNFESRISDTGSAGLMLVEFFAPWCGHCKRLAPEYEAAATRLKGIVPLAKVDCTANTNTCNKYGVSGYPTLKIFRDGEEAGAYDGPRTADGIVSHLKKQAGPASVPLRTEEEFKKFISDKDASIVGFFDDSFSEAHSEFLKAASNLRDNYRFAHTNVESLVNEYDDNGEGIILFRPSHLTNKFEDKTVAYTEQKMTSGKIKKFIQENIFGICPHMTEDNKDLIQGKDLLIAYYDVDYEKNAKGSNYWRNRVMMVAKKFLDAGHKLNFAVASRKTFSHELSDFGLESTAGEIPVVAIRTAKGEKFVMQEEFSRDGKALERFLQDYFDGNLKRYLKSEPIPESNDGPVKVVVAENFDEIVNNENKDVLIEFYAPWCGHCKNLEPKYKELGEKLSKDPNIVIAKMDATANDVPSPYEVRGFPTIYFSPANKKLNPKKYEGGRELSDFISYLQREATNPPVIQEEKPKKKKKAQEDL
GPT2 (human), sequence (Q8TD30 whole entry): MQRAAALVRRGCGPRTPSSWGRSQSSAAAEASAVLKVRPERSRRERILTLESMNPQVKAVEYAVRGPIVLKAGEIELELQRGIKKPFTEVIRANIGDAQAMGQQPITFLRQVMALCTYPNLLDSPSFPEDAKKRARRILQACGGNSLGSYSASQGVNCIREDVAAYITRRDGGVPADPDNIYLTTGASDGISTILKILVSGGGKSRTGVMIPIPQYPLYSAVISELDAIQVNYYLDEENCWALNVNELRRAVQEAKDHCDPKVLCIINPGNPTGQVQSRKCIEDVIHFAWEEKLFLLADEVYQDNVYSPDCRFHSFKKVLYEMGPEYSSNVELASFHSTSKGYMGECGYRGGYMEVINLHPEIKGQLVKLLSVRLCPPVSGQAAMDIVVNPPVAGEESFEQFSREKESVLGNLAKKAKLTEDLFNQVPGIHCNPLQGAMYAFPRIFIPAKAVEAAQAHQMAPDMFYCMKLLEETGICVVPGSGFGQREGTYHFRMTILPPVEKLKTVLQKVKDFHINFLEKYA
HSPA1L (human), sequence (P34931 whole entry): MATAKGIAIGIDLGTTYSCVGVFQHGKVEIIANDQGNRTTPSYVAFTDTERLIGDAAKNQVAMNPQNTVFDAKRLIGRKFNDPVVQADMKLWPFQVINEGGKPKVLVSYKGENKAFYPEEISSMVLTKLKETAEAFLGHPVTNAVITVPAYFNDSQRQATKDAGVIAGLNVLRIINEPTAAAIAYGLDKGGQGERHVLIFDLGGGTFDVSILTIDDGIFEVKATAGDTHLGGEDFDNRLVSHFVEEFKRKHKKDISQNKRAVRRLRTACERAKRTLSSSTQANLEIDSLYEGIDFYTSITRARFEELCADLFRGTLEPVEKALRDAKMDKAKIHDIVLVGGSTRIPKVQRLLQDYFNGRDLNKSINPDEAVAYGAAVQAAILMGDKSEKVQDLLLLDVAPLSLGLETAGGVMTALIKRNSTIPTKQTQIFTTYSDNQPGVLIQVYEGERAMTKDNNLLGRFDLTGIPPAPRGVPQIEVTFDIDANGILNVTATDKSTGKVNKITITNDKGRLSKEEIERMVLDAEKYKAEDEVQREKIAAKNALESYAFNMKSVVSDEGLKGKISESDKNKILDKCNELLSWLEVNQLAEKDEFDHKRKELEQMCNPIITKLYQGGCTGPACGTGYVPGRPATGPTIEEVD
PTPMT1 (human), sequence (Q8WUK0 28-201 limits assumed): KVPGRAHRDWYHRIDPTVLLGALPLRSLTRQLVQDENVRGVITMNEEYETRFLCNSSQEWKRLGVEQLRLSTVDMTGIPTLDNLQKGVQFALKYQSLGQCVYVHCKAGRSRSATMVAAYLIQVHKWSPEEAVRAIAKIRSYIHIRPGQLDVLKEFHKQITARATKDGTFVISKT
NDUFAF5 (human), sequence (Q5TEU4 37-345 limits assumed): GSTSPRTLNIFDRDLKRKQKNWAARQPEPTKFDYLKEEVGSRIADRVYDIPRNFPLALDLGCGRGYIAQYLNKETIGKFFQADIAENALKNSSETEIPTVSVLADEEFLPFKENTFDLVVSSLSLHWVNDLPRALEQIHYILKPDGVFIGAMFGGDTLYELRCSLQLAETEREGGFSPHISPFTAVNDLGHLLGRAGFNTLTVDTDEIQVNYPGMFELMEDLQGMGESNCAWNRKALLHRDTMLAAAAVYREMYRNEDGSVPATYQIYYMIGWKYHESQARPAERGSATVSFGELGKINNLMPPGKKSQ

FlagBirA-ClpP (WT) (from UniProt P06709 1-321; Q16740 57-277) (enzyme)
Log2 Fold change (vs control) [1]: -1.06 log2
Log2 Fold change (vs control) [2]: -0.59 log2
Log2 Fold change (vs control) [3]: -5.46 log2
Log2 Fold change (vs control) [4]: -1.91 log2
Log2 Fold change (vs control) [5]: -3.81 log2
Log2 Fold change (vs control) [6]: -1.18 log2
Log2 Fold change (vs control) [7]: -4.17 log2
Log2 Fold change (vs control) [8]: -4.74 log2
Log2 Fold change (vs control) [9]: -5 log2
Log2 Fold change (vs control) [10]: -2.12 log2
Log2 Fold change (vs control) [11]: -4 log2
Log2 Fold change (vs control) [12]: -1.08 log2
Log2 Fold change (vs control) [13]: -3.7 log2
Log2 Fold change (vs control) [14]: -6.34 log2
Log2 Fold change (vs control) [15]: -2.58 log2
Log2 Fold change (vs control) [16]: -1.3 log2
Log2 Fold change (vs control) [17]: -1.26 log2
Log2 Fold change (vs control) [18]: 0.5 log2
Log2 Fold change (vs control) [19]: -0.36 log2
Log2 Fold change (vs control) [20]: -0.24 log2
Log2 Fold change (vs control) [21]: -6.09 log2
Log2 Fold change (vs control) [22]: -4 log2
Log2 Fold change (vs control) [23]: -4.91 log2
Log2 Fold change (vs control) [24]: -4.81 log2
Log2 Fold change (vs control) [25]: -3.91 log2
Log2 Fold change (vs control) [26]: -2.58 log2
Log2 Fold change (vs control) [27]: -2.77 log2
Log2 Fold change (vs control) [28]: -4.25 log2
Log2 Fold change (vs control) [29]: -7.55 log2
Log2 Fold change (vs control) [30]: -1.08 log2
Log2 Fold change (vs control) [31]: -4.32 log2
Log2 Fold change (vs control) [32]: -0.68 log2
Log2 Fold change (vs control) [33]: -5.93 log2
Log2 Fold change (vs control) [34]: -4.32 log2
Log2 Fold change (vs control) [35]: -1.19 log2
Log2 Fold change (vs control) [36]: -4.17 log2
Log2 Fold change (vs control) [37]: -3.1 log2
Log2 Fold change (vs control) [38]: -2.58 log2
Log2 Fold change (vs control) [39]: 0.03 log2
Log2 Fold change (vs control) [40]: -4.95 log2
Log2 Fold change (vs control) [41]: -2.95 log2
Log2 Fold change (vs control) [42]: -1.38 log2
Log2 Fold change (vs control) [43]: -1.81 log2
Log2 Fold change (vs control) [44]: -3.58 log2
Log2 Fold change (vs control) [45]: -0.48 log2
Log2 Fold change (vs control) [46]: -0.21 log2
Log2 Fold change (vs control) [47]: -1.3 log2
Log2 Fold change (vs control) [48]: -3.82 log2
Log2 Fold change (vs control) [49]: -0.51 log2
Log2 Fold change (vs control) [50]: -1.81 log2
Log2 Fold change (vs control) [51]: -3.08 log2
